Data reported in US20220089710A1, “Method of Treating Signs and Symptoms of Osteoarthritis” (Pfizer Inc., priority 2019, published 2022).

Test system: patients with osteoarthritis (OA) of the knee or hip
Test: Example 3: treatment-emergent adverse events and deaths, Safety Population;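 further: seven SC injections given 8 weeks apart plus twice-daily oral study medication up to Week 56, Safety Population of all patients dosed at least once SC, analyzed by treatment actually received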
Procedure: Patients received a total of seven SC injections, each separated by 8 weeks and daily oral (PO) study medication BID through Week 56.
The Intent-to-Treat (ITT) Population included all patients who were randomized and received at least one dose of SC study drug. This analysis set was primary for all efficacy endpoints, which were analyzed according to randomization assignment. The Safety Population included all patients who received at least one dose of SC study treatment. This analysis set was primary for all safety endpoints, which were analyzed according to treatment received.

tanezumab: humanized immunoglobulin G Type 2 (IgG2) monoclonal antibody directed against human nerve growth factor (NGF); SEQ ID NOs: 9 or 11 and 10
deaths: patients (2.5 mg SC, during the safety follow-up period): 2 | deaths: patients (2.5 mg SC, during the treatment period): 2 | Adverse Event: % of patients (2.5 mg SC, treatment period): 62.8% | Adverse Event: number of patients (2.5 mg SC, treatment period): 629 | Arthralgia: % of patients (2.5 mg SC, treatment period): 13.3% | Arthralgia: number of patients (2.5 mg SC, treatment period): 133 | Back pain: % of patients (2.5 mg SC, treatment period): 3.4% | Back pain: number of patients (2.5 mg SC, treatment period): 34 | Discontinued from study (adverse event): % of patients (2.5 mg SC, treatment period): 2.3% | Discontinued from study (adverse event): number of patients (2.5 mg SC, treatment period): 23 | Discontinued study drug and continued study (adverse event): % of patients (2.5 mg SC, treatment period): 5.3% | Discontinued study drug and continued study (adverse event): number of patients (2.5 mg SC, treatment period): 53 | Fall: % of patients (2.5 mg SC, treatment period): 6.5% | Fall: number of patients (2.5 mg SC, treatment period): 65 | Headache: % of patients (2.5 mg SC, treatment period): 5.6% | Headache: number of patients (2.5 mg SC, treatment period): 56 | Joint swelling: % of patients (2.5 mg SC, treatment period): 4.3% | Joint swelling: number of patients (2.5 mg SC, treatment period): 43 | Musculoskeletal pain: % of patients (2.5 mg SC, treatment period): 4.3% | Musculoskeletal pain: number of patients (2.5 mg SC, treatment period): 43 | Nasopharyngitis: % of patients (2.5 mg SC, treatment period): 5.7% | Nasopharyngitis: number of patients (2.5 mg SC, treatment period): 57 | Osteoarthritis: % of patients (2.5 mg SC, treatment period): 3.9% | Osteoarthritis: number of patients (2.5 mg SC, treatment period): 39 | Pain in extremity: % of patients (2.5 mg SC, treatment period): 3.1% | Pain in extremity: number of patients (2.5 mg SC, treatment period): 31 | Paraesthesia: % of patients (2.5 mg SC, treatment period): 1.8% | Paraesthesia: number of patients (2.5 mg SC, treatment period): 18 | Peripheral edema: % of patients (2.5 mg SC, treatment period): 1.9% | Peripheral edema: number of patients (2.5 mg SC, treatment period): 19 | Rapidly progressive osteoarthritis (adverse event): % of patients (2.5 mg SC, treatment period): 1.8% | Rapidly progressive osteoarthritis (adverse event): number of patients (2.5 mg SC, treatment period): 18 | Serious AE Acute kidney injury: n (2.5 mg SC, treatment period): 0 | Serious AE Acute myocardial infarction: % (2.5 mg SC, treatment period): 1.0% | Serious AE Acute myocardial infarction: n (2.5 mg SC, treatment period): 1 | Serious AE Arthralgia: % (2.5 mg SC, treatment period): 0.4% | Serious AE Arthralgia: n (2.5 mg SC, treatment period): 4 | Serious AE Cellulitis: n (2.5 mg SC, treatment period): 0 | Serious AE Cerebrovascular accident: % (2.5 mg SC, treatment period): 0.2% | Serious AE Cerebrovascular accident: n (2.5 mg SC, treatment period): 2 | Serious AE Gastrointestinal hemorrhage: n (2.5 mg SC, treatment period): 0 | Serious AE Intervetebral disc protrusion: n (2.5 mg SC, treatment period): 0 | Serious AE Meniscus injury: % (2.5 mg SC, treatment period): 0.1% | Serious AE Meniscus injury: n (2.5 mg SC, treatment period): 1 | Serious AE Osteoarthritis: % (2.5 mg SC, treatment period): 0.9% | Serious AE Osteoarthritis: n (2.5 mg SC, treatment period): 9 | Serious AE Osteonecrosis: n (2.5 mg SC, treatment period): 0 | Serious AE Pneumonia: % (2.5 mg SC, treatment period): 0.1% | Serious AE Pneumonia: n (2.5 mg SC, treatment period): 1 | Serious AE RPOA: % (2.5 mg SC, treatment period): 0.3% | Serious AE RPOA: n (2.5 mg SC, treatment period): 3 | Serious AE Subchondral insufficiency fracture: % (2.5 mg SC, treatment period): 0.1% | Serious AE Subchondral insufficiency fracture: n (2.5 mg SC, treatment period): 1 | Serious Adverse Event (any event): % of patients (2.5 mg SC, treatment period): 5.1% | Serious Adverse Event (any event): number of patients (2.5 mg SC, treatment period): 51 | Severe Adverse Event: % of patients (2.5 mg SC, treatment period): 4.5% | Severe Adverse Event: number of patients (2.5 mg SC, treatment period): 45 | Upper respiratory tract infection: number of patients (2.5 mg SC, treatment period): 57 | deaths: patients (5 mg SC, after patient discontinuation from the study): 1 | deaths: patients (5 mg SC, during the safety follow-up period): 1 | deaths: patients (5 mg SC, during the treatment period): 3 | Adverse Event: % of patients (5 mg SC, treatment period): 67.1% | Adverse Event: number of patients (5 mg SC, treatment period): 670 | Arthralgia: % of patients (5 mg SC, treatment period): 16.5% | Arthralgia: number of patients (5 mg SC, treatment period): 165 | Back pain: % of patients (5 mg SC, treatment period): 5.5% | Back pain: number of patients (5 mg SC, treatment period): 55 | Discontinued from study (adverse event): % of patients (5 mg SC, treatment period): 2.0% | Discontinued from study (adverse event): number of patients (5 mg SC, treatment period): 20 | Discontinued study drug and continued study (adverse event): % of patients (5 mg SC, treatment period): 8.8% | Discontinued study drug and continued study (adverse event): number of patients (5 mg SC, treatment period): 88 | Fall: % of patients (5 mg SC, treatment period): 5.3% | Fall: number of patients (5 mg SC, treatment period): 53 | Headache: % of patients (5 mg SC, treatment period): 4.5% | Headache: number of patients (5 mg SC, treatment period): 45 | Joint swelling: % of patients (5 mg SC, treatment period): 4.8% | Joint swelling: number of patients (5 mg SC, treatment period): 48 | Musculoskeletal pain: % of patients (5 mg SC, treatment period): 4.1% | Musculoskeletal pain: number of patients (5 mg SC, treatment period): 41 | Nasopharyngitis: % of patients (5 mg SC, treatment period): 6.7% | Nasopharyngitis: number of patients (5 mg SC, treatment period): 67 | Osteoarthritis: % of patients (5 mg SC, treatment period): 5.4% | Osteoarthritis: number of patients (5 mg SC, treatment period): 54 | Pain in extremity: % of patients (5 mg SC, treatment period): 3.7% | Pain in extremity: number of patients (5 mg SC, treatment period): 37 | Paraesthesia: % of patients (5 mg SC, treatment period): 3.0% | Paraesthesia: number of patients (5 mg SC, treatment period): 30 | Peripheral edema: % of patients (5 mg SC, treatment period): 4.3% | Peripheral edema: number of patients (5 mg SC, treatment period): 43 | Rapidly progressive osteoarthritis (adverse event): % of patients (5 mg SC, treatment period): 4.1% | Rapidly progressive osteoarthritis (adverse event): number of patients (5 mg SC, treatment period): 41 | Serious AE Acute kidney injury: % (5 mg SC, treatment period): 0.2% | Serious AE Acute kidney injury: n (5 mg SC, treatment period): 2 | Serious AE Acute myocardial infarction: % (5 mg SC, treatment period): 0.1% | Serious AE Acute myocardial infarction: n (5 mg SC, treatment period): 1 | Serious AE Arthralgia: % (5 mg SC, treatment period): 0.9% | Serious AE Arthralgia: n (5 mg SC, treatment period): 9 | Serious AE Cellulitis: % (5 mg SC, treatment period): 0.2% | Serious AE Cellulitis: n (5 mg SC, treatment period): 2 | Serious AE Cerebrovascular accident: n (5 mg SC, treatment period): 0 | Serious AE Gastrointestinal hemorrhage: n (5 mg SC, treatment period): 0 | Serious AE Intervetebral disc protrusion: % (5 mg SC, treatment period): 0.2% | Serious AE Intervetebral disc protrusion: n (5 mg SC, treatment period): 2 | Serious AE Meniscus injury: % (5 mg SC, treatment period): 0.3% | Serious AE Meniscus injury: n (5 mg SC, treatment period): 3 | Serious AE Osteoarthritis: % (5 mg SC, treatment period): 1.7% | Serious AE Osteoarthritis: n (5 mg SC, treatment period): 17 | Serious AE Osteonecrosis: % (5 mg SC, treatment period): 0.2% | Serious AE Osteonecrosis: n (5 mg SC, treatment period): 2 | Serious AE Pneumonia: % (5 mg SC, treatment period): 0.2% | Serious AE Pneumonia: n (5 mg SC, treatment period): 2 | Serious AE RPOA: % (5 mg SC, treatment period): 1.1% | Serious AE RPOA: n (5 mg SC, treatment period): 11 | Serious AE Subchondral insufficiency fracture: % (5 mg SC, treatment period): 0.4% | Serious AE Subchondral insufficiency fracture: n (5 mg SC, treatment period): 4 | Serious Adverse Event (any event): % of patients (5 mg SC, treatment period): 8.0% | Serious Adverse Event (any event): number of patients (5 mg SC, treatment period): 80 | Severe Adverse Event: % of patients (5 mg SC, treatment period): 6.8% | Severe Adverse Event: number of patients (5 mg SC, treatment period): 68 | Upper respiratory tract infection: number of patients (5 mg SC, treatment period): 45
